The labels stand for the following.
B1: full-length BICD2 tagged on the C-terminus with mini-TurboID (BICD2-mTrbo) [human] / Dynein intermediate chain (DYNC1I1) [human (endogenous in HEK293)] (parent)
chain 1: MSAPSEEEEYARLVMEAQPEWLRAEVKRLSHELAETTREKIQAAEYGLAVLEEKHQLKLQFEELEVDYEAIRSEMEQLKEAFGQAHTNHKKVAADGESREESLIQESASKEQYYVRKVLELQTELKQLRNVLTNTQSENERLASVAQELKEINQNVEIQRGRLRDDIKEYKFREARLLQDYSELEEENISLQKQVSVLRQNQVEFEGLKHEIKRLEEETEYLNSQLEDAIRLKEISERQLEEALETLKTEREQKNSLRKELSHYMSINDSFYTSHLHVSLDGLKFSDDAAEPNNDAEALVNGFEHGGLAKLPLDNKTSTPKKEGLAPPSPSLVSDLLSELNISEIQKLKQQLMQMEREKAGLLATLQDTQKQLEHTRGSLSEQQEKVTRLTENLSALRRLQASKERQTALDNEKDRDSHEDGDYYEVDINGPEILACKYHVAVAEAGELREQLKALRSTHEAREAQHAEEKGRYEAEGQALTEKVSLLEKASRQDRELLARLEKELKKVSDVAGETQGSLSVAQDELVTFSEELANLYHHVCMCNNETPNRVMLDYYREGQGGAGRTSPGGRTSPEARGRRSPILLPKGLLAPEAGRADGGTGDSSPSPGSSLPSPLSDPRREPMNIYNLIAIIRDQIKHLQAAVDRTTELSRQRIASQELGPAVDKDKEALMEEILKLKSLLSTKREQITTLRTVLKANKQTAEVALANLKSKYENEKAMVTETMMKLRNELKALKEDAATFSSLRAMFATRCDEYITQLDEMQRQLAAAEDEKKTLNSLLRMAIQQKLALTQRLELLELDHEQTRRGRAKAAPKTKPATPSL
chain 2: MSDKSDLKAELERKKQRLAQIREEKKRKEEERKKKEADMQQKKEPVQDDSDLDRKRRETEALLQSIGISPEPPLVQPLHFLTWDTCYFHYLVPTPMSPSSKSVSTPSEAGSQDSGDLGPLTRTLQWDTDPSVLQLQSDSELGRRLHKLGVSKVTQVDFLPREVVSYSKETQTPLATHQSEEDEEDEEMVESKVGQDSELENQDKKQEVKEAPPRELTEEEKQQILHSEEFLIFFDRTIRVIERALAEDSDIFFDYSGRELEEKDGDVQAGANLSFNRQFYDEHWSKHRVVTCMDWSLQYPELMVASYNNNEDAPHEPDGVALVWNMKFKKTTPEYVFHCQSSVMSVCFARFHPNLVVGGTYSGQIVLWDNRSHRRTPVQRTPLSAAAHTHPVYCVNVVGTQNAHNLITVSTDGKMCSWSLDMLSTPQESMELVYNKSKPVAVTGMAFPTGDVNNFVVGSEEGTVYTACRHGSKAGIGEVFEGHQGPVTGINCHMAVGPIDFSHLFVTSSFDWTVKLWTTKHNKPLYSFEDNADYVYDVMWSPVHPALFACVDGMGRLDLWNLNNDTEVPTASVAIEGASALNRVRWAQAGKEVAVGDSEGRIWVYDVGELAVPHNDEWTRFARTLVEIRANRADSEEEGTVELSA

This experiment covers variants of B1. Put plainly: co-immunoprecipitation (V5 trap beads) with western blot quantification. Conditions: parent: 1, read off a plot.
chain 1 N188T: the ratio to parent is 1.8.

As to chain 1 R694C, the ratio to parent amounted to 5.1.

As for chain 1 R747C, the ratio to parent came to 4.6.

The record behind these values is article PMC12674617.
